Laboratory results: PMC7367873, “Dissecting the sequence determinants for dephosphorylation by the catalytic subunits of phosphatases PP1 and PP2A” (Nature Communications, 2020)

B1: DDX20 (protein, UniProt Q9UHI6 1-824, looked up)
Probable ATP-dependent RNA …: MAAAFEASGALAAVATAMPAEHVAVQVPAPEPTPGPVRILRTAQDLSSPRTRTGDVLLAEPADFESLLLSRPVLEGLRAAGFERPSPVQLKAIPLGRCGLDLIVQAKSGTGKTCVFSTIALDSLVLENLSTQILILAPTREIAVQIHSVITAIGIKMEGLECHVFIGGTPLSQDKTRLKKCHIAVGSPGRIKQLIELDYLNPGSIRLFILDEADKLLEEGSFQEQINWIYSSLPASKQMLAVSATYPEFLANALTKYMRDPTFVRLNSSDPSLIGLKQYYKVVNSYPLAHKVFEEKTQHLQELFSRIPFNQALVFSNLHSRAQHLADILSSKGFPAECISGNMNQNQRLDAMAKLKHFHCRVLISTDLTSRGIDAEKVNLVVNLDVPLDWETYMHRIGRAGRFGTLGLTVTYCCRGEEENMMMRIAQKCNINLLPLPDPIPSGLMEECVDWDVEVKAAVHTYGIASVPNQPLKKQIQKIERTLQIQKAHGDHMASSRNNSVSGLSVKSKNNTKQKLPVKSHSECGIIEKATSPKELGCDRQSEEQMKNSVQTPVENSTNSQHQVKEALPVSLPQIPCLSSFKIHQPYTLTFAELVEDYEHYIKEGLEKPVEIIRHYTGPGDQTVNPQNGFVRNKVIEQRVPVLASSSQSGDSESDSDSYSSRTSSQSKGNKSYLEGSSDNQLKDSESTPVDDRISLEQPPNGSDTPNPEKYQESPGIQMKTRLKEGASQRAKQSRRNLPRRSSFRLQTEAQEDDWYDCHREIRLSFSDTYQDYEEYWRAYYRAWQEYYAAASHSYYWNAQRHPSWMAAYHMNTIYLQEMMHSNQ
B2: NOP58 (protein, UniProt Q9Y2X3 1-529, looked up)
Nucleolar protein 58: MLVLFETSVGYAIFKVLNEKKLQEVDSLWKEFETPEKANKIVKLKHFEKFQDTAEALAAFTALMEGKINKQLKKVLKKIVKEAHEPLAVADAKLGGVIKEKLNLSCIHSPVVNELMRGIRSQMDGLIPGVEPREMAAMCLGLAHSLSRYRLKFSADKVDTMIVQAISLLDDLDKELNNYIMRCREWYGWHFPELGKIISDNLTYCKCLQKVGDRKNYASAKLSELLPEEVEAEVKAAAEISMGTEVSEEDICNILHLCTQVIEISEYRTQLYEYLQNRMMAIAPNVTVMVGELVGARLIAHAGSLLNLAKHAASTVQILGAEKALFRALKSRRDTPKYGLIYHASLVGQTSPKHKGKISRMLAAKTVLAIRYDAFGEDSSSAMGVENRAKLEARLRTLEDRGIRKISGTGKALAKTEKYEHKSEVKTYDPSGDSTLPTCSKKRKIEQVDKEDEITEKKAKKAKIKVKVEEEEEEKVAEEEETSVKKKKKRGKKKHIKEEPLSEEEPCTSTAIASPEKKKKKKKKRENED
B3: BBX (protein, UniProt Q8WY36 1-941, looked up)
HMG box transcription factor …: MKGSNRNKDHSAEGEGVGKRPKRKCLQWHPLLAKKLLDFSEEEEEEDEEEDIDKVQLLGADGLEQDVGETEDDESPEQRARRPMNAFLLFCKRHRSLVRQEHPRLDNRGATKILADWWAVLDPKEKQKYTDMAKEYKDAFMKANPGYKWCPTTNKPVKSPTPTVNPRKKLWAFPSDSSRDLPSPKKAKTEEMPQLNFGMADPTQMGGLSMLLLAGEHALGTPEVSSGTCRPDVSESPELRQKSPLFQFAEISSSTSHSDASTKQCQTSALFQFAEISSNTSQLGGAEPVKRCGKSALFQLAEMCLASEGMKMEESKLIKAKESDGGRIKELEKGKEEKEIKMEKTDETRLQKEAEFEKSAKENLRDSKELRNFEALQIDDIMAIKMEDPKEIRKEELEEDHKCSHFPDFSYSASSKIIISDVPSRKDHMCHPHGIMIIEDPAALNKPEKLKKKKKKSKMDRHGNDKSTPKKTCKKRQSSESDIESVIYTIEAVAKGDWGIEKLGDTPRKKVRTSSSGKGSILDAKPPKKKVKSREKKMSKEKSSDTTKESRPPDFISISASKNISGETPEGIKAEPLTPMEDALPPSLSGQAKPEDSDCHRKIETCGSRKSERSCKGALYKTLVSEGMLTSLRANVDRGKRSSGKGNSSDHEGCWNEESWTFSQSGTSGSKKFKKTKPKEDCLLGSAKLDEEFEKKFNSLPQYSPVTFDRKCVPVPRKKKKTGNVSSEPTKTSKGPFQSQKKNLFHKIVSKYKHKKEKPNVPEKGSGDKWSNKQLFLDAIHPTEAIFSEDRNTMEPVHKVKNIPSIFNTPEPTTTQEPLVGSQKRKARKTKITHLVRTADGRVSPAGGTLDDKPKEQLQRSLPKATETDCNDKCSHNTEVGETRSSTPEMPAVSAFFSLAALAEVAAMENVHRGQRSTPLTHDGQPKEMPQAPVLISCADQ
B4: DDX3X;DDX3Y (protein, UniProt O00571 2-662, looked up)
ATP-dependent RNA helicase …: SHVAVENALGLDQQFAGLDLNSSDNQSGGSTASKGRYIPPHLRNREATKGFYDKDSSGWSSSKDKDAYSSFGSRSDSRGKSSFFSDRGSGSRGRFDDRGRSDYDGIGSRGDRSGFGKFERGGNSRWCDKSDEDDWSKPLPPSERLEQELFSGGNTGINFEKYDDIPVEATGNNCPPHIESFSDVEMGEIIMGNIELTRYTRPTPVQKHAIPIIKEKRDLMACAQTGSGKTAAFLLPILSQIYSDGPGEALRAMKENGRYGRRKQYPISLVLAPTRELAVQIYEEARKFSYRSRVRPCVVYGGADIGQQIRDLERGCHLLVATPGRLVDMMERGKIGLDFCKYLVLDEADRMLDMGFEPQIRRIVEQDTMPPKGVRHTMMFSATFPKEIQMLARDFLDEYIFLAVGRVGSTSENITQKVVWVEESDKRSFLLDLLNATGKDSLTLVFVETKKGADSLEDFLYHEGYACTSIHGDRSQRDREEALHQFRSGKSPILVATAVAARGLDISNVKHVINFDLPSDIEEYVHRIGRTGRVGNLGLATSFFNERNINITKDLLDLLVEAKQEVPSWLENMAYEHHYKGSSRGRSKSSRFSGGFGARDYRQSSGASSSSFSSSRASSSRSGGGGHGSSRGFGGGGYGGFYNSDGYGGNYNSQGVDWWGN
modifications: or DDX3Y
B5: MMS19 (protein, UniProt Q96T76 2-1030, looked up)
MMS19 nucleotide excision …: AAAAAVEAAAPMGALWGLVHDFVVGQQEGPADQVAADVKSGNYTVLQVVEALGSSLENPEPRTRARAIQLLSQVLLHCHTLLLEKEVVHLILFYENRLKDHHLVIPSVLQGLKALSLCVALPPGLAVSVLKAIFQEVHVQSLPQVDRHTVYNIITNFMRTREEELKSLGADFTFGFIQVMDGEKDPRNLLVAFRIVHDLISRDYSLGPFVEELFEVTSCYFPIDFTPPPNDPHGIQREDLILSLRAVLASTPRFAEFLLPLLIEKVDSEVLSAKLDSLQTLNACCAVYGQKELKDFLPSLWASIRREVFQTASERVEAEGLAALHSLTACLSRSVLRADAEDLLDSFLSNILQDCRHHLCEPDMKLVWPSAKLLQAAAGASARACDSVTSNVLPLLLEQFHKHSQSSQRRTILEMLLGFLKLQQKWSYEDKDQRPLNGFKDQLCSLVFMALTDPSTQLQLVGIRTLTVLGAQPDLLSYEDLELAVGHLYRLSFLKEDSQSCRVAALEASGTLAALYPVAFSSHLVPKLAEELRVGESNLTNGDEPTQCSRHLCCLQALSAVSTHPSIVKETLPLLLQHLWQVNRGNMVAQSSDVIAVCQSLRQMAEKCQQDPESCWYFHQTAIPCLLALAVQASMPEKEPSVLRKVLLEDEVLAAMVSVIGTATTHLSPELAAQSVTHIVPLFLDGNVSFLPENSFPSRFQPFQDGSSGQRRLIALLMAFVCSLPRNVEIPQLNQLMRELLELSCCHSCPFSSTAAAKCFAGLLNKHPAGQQLDEFLQLAVDKVEAGLGSGPCRSQAFTLLLWVTKALVLRYHPLSSCLTARLMGLLSDPELGPAAADGFSLLMSDCTDVLTRAGHAEVRIMFRQRFFTDNVPALVQGFHAAPQDVKPNYLKGLSHVLNRLPKPVLLPELPTLLSLLLEALSCPDCVVQLSTLSCLQPLLLEAPQVMSLHVDTLVTKFLNLSSSPSMAVRIAALQCMHALTRLPTPVLLPYKPQVIRALAKPLDDKKRLVRKEAVSARGEWFLLGSPGS
B6: RRBP1 (protein, UniProt Q9P2E9 1-1410, looked up)
Ribosome-binding protein 1: MDIYDTQTLGVVVFGGFMVVSAIGIFLVSTFSMKETSYEEALANQRKEMAKTHHQKVEKKKKEKTVEKKGKTKKKEEKPNGKIPDHDPAPNVTVLLREPVRAPAVAVAPTPVQPPIIVAPVATVPAMPQEKLASSPKDKKKKEKKVAKVEPAVSSVVNSIQVLTSKAAILETAPKEVPMVVVPPVGAKGNTPATGTTQGKKAEGTQNQSKKAEGAPNQGRKAEGTPNQGKKTEGTPNQGKKAEGTPNQGKKAEGTPNQGKKAEGAQNQGKKVDTTPNQGKKVEGAPTQGRKAEGAQNQAKKVEGAQNQGKKAEGAQNQGKKGEGAQNQGKKAEGAQNQGKKAEGAQNQGKKAEGAQNQGKKAEGAQNQGKKAEGAQNQGKKAEGAQNQGKKVEGAQNQGKKAEGAQNQGKKAEGAQNQGKKAEGAQNQGKKAEGAQNQGKKAEGAQNQGKKAEGAQNQGKKAEGAQNQGKKVEGAQNQGKKAEGAQNQGKKAEGAQNQGKKAEGAQNQGQKGEGAQNQGKKTEGAQGKKAERSPNQGKKGEGAPIQGKKADSVANQGTKVEGITNQGKKAEGSPSEGKKAEGSPNQGKKADAAANQGKKTESASVQGRNTDVAQSPEAPKQEAPAKKKSGSKKKGEPGPPDADGPLYLPYKTLVSTVGSMVFNEGEAQRLIEILSEKAGIIQDTWHKATQKGDPVAILKRQLEEKEKLLATEQEDAAVAKSKLRELNKEMAAEKAKAAAGEAKVKKQLVAREQEITAVQARMQASYREHVKEVQQLQGKIRTLQEQLENGPNTQLARLQQENSILRDALNQATSQVESKQNAELAKLRQELSKVSKELVEKSEAVRQDEQQRKALEAKAAAFEKQVLQLQASHRESEEALQKRLDEVSRELCHTQSSHASLRADAEKAQEQQQQMAELHSKLQSSEAEVRSKCEELSGLHGQLQEARAENSQLTERIRSIEALLEAGQARDAQDVQASQAEADQQQTRLKELESQVSGLEKEAIELREAVEQQKVKNNDLREKNWKAMEALATAEQACKEKLLSLTQAKEESEKQLCLIEAQTMEALLALLPELSVLAQQNYTEWLQDLKEKGPTLLKHPPAPAEPSSDLASKLREAEETQSTLQAECDQYRSILAETEGMLRDLQKSVEEEEQVWRAKVGAAEEELQKSRVTVKHLEEIVEKLKGELESSDQVREHTSHLEAELEKHMAAASAECQNYAKEVAGLRQLLLESQSQLDAAKSEAQKQSDELALVRQQLSEMKSHVEDGDIAGAPASSPEAPPAEQDPVQLKTQLEWTEAILEDEQTQRQKLTAEFEEAQTSACRLQEELEKLRTAGPLESSETEEASQLKERLEKEKKLTSDLGRAATRLQELLKTTQEQLAREKDTVKKLQEQLEKAEDGSSSKEGTSV

Test system: GFP-14-3-3β
Experiment: GFP-14-3-3β co-IP with LC-MS/MS, untreated GFP-14-3-3β versus GFP control (14-3-3 interactome)
Assay type: binding, human
Conditions: log2 difference; pairwise comparison untreated vs GFP, label-free quantification, 3 replicates each

With B1 the “Difference (log2), untreated vs GFP” value was -0.1781.

Same assay, conditions: untreated vs GFP; LFQ intensities; 3 replicates each

Compared with B2, B3 is lower in “Difference (log2), untreated vs GFP” value: 1.325 log2 for the first, 0.1239 log2 for the second.

First: B4
Second: B5
The “Difference (log2), untreated vs GFP” value of the first is lower: 0.1796 log2 for the first, 1.425 log2 for the second.

For B6, the “Difference (log2), untreated vs GFP” value was -0.1928 log2.

Test system: GFP-14-3-3β and its binding proteins
Experiment: GFP-14-3-3β co-IP with LC-MS/MS label-free quantification, untreated versus PP1c-treated
Design: species or system human
Conditions: PP1 vs untreated; LFQ intensities; 3 replicates each

First: B2
Second: B3
The “Difference (log2), PP1 vs untreated” value of the first is higher: 0.6296 log2 for the first, 0.6283 log2 for the second.

First: B4
Second: B5
The “Difference (log2), PP1 vs untreated” value of the first is higher: 0.6546 log2 for the first, 0.6094 log2 for the second.

With B6 the “Difference (log2), PP1 vs untreated” value was 0.6577 log2.

Same assay, conditions: log2 difference; pairwise comparison PP1 vs untreated, label-free quantification, 3 replicates each

With B1 the “Difference (log2), PP1 vs untreated” value was 2.218.
